From article PMC8410055

Target: SARS-CoV-2 spike protein expressed on transfected HEK293T cells (UniProt P0DTC2)
Test: flow cytometry on cells

Q: For “L-SIGN/Fc: extracellular domain of L-SIGN (amino acids 78–399) fused to the human IgG2 Fc domain (from UniProt Q9H2X3) EPN>QPD”, which response (% Fc binding (positive population)) is on record?
A: Its response (% Fc binding (positive population)) is 1.58.
